Data on 17 molecules can be found in patent US20060034833A1 (published 2006).

B2: mouse IFN-gamma (ligand, UniProt P01580 23-155, looked up)
chain: HGTVIESLESLNNYFNSSGIDVEEKSLFLDIWRNWQKDGDMKILQSQIISFYLRLFEVLKDNQAISNNISVIESHLITTFFSNSKAKKDAFMSIAKFEVNNPQVQRQAFNELIRVVHQLLPESSLRKRKRSRC
notes: Used biotinylated (biotinamidocaproic acid 3-sulfo N-hydroxysuccinimide ester) in the assays; also called mouse IFN-γ; biotinylated mouse IFN-γ

Assay [1] deals with T1, human IFN-gamma (human, UniProt P01579 24-166).
T1 construct: The cell-based assays used IFN-γ 'expressed in CHO'; also called human IFN-γ; Interferon gamma
T1 sequence (looked up): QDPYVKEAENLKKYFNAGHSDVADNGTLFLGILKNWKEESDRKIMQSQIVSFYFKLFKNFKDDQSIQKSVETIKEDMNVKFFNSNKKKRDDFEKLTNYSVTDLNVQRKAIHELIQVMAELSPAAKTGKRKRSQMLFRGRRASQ
Briefly: competition ELISA: VHH pre-incubated with biotinylated human IFN-γ, coated human IFN-γ receptor. As for the experimental part:
Mouse or human IFN-γ receptor was coated at a concentration of 1-2 μg/ml overnight at 4° C. Plates were washed 5 times with PBS/0.05% Tween-20. Wells were blocked with 1% caseine overnight at 4° C. VHH was pre-incubated with 20 ng biotinylated human or mouse IFN-γ for 30 minutes at room temperature. The mixture was applied to the wells and incubated for 1 hr at room temperature. Detection was performed using Extravidin-AP and pNPP as substrate. Plates were read at 405 nm after 30 minutes incubation at room temperature. Abcam AB 7812 polyclonal antibody was used as a positive control showing a dosis-dependent inhibition of human IFN-γ/IFN-γ receptor as presented in FIG. 7.
As presented in Table 6, a dose-dependent inhibition assay to determine the IC50 was performed for representative clones of each sequence family.
Background: In an ELISA, binding on a coated surface is turned into a signal by an enzyme label.

For assay [2], the target named is T1, human IFN-gamma. As to the kind of experiment: cell-based or functional assay.
Assay [3] has as its target T2, mouse IFN-γ receptor (IFN-γ R1/Fc) (mouse, UniProt P15261 26-253, limits assumed).
T2 construct: Bought Fc fusion, coated on plates; not shown: Fc part of the bought fusion; not described
T2 sequence (looked up): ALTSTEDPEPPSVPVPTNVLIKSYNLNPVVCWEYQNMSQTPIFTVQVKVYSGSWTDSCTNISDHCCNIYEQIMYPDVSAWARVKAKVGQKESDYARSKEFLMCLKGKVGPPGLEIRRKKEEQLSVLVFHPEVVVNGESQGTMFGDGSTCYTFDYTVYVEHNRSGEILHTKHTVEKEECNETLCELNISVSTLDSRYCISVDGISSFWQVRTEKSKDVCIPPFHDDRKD
Briefly: ELISA: biotinylated mouse IFN-γ on coated mouse IFN-γ R1/Fc, Extravidin-AP. As for the experimental part:
96-well microtiter plates were coated with human IFN-γ receptor (IFN-γ R1 (R&D Systems, Cat Nr: 673-IR/CF) or mouse IFN-γ receptor (IFN-γ R1/Fc (R&D Systems, Cat Nr:1026-GR) at 1 μg/ml in PBS overnight at 4° C. Plates were washed 5 times with PBS/0.05% Tween-20. Plates were blocked for 2 hrs at room temperature using PBS+1% Caseine. A dilution serie of biotinylated human or mouse IFN-γ was incubated for 1 hr at room temperature. Plates were washed 5 times with PBS/0.05% Tween-20. Binding was detected using Extravidin-AP and pNPP. Plates were read at 405 nm after 30 minutes incubation at room temperature.

In assay [4] the target is B2. As to the kind of experiment: ELISA screening of selected clones on captured biotinylated mouse IFN-γ (Examples 7 and 8). Here is the method:
To examine the clones selected using biotinylated human or mouse IFN-γ, wells were coated with neutravidine at a concentration of 2 μg/ml overnight at 4° C. Plates were washed 5 times with PBS/0.05% Tween-20. Wells were blocked with 1% caseine for 2 hrs at room temperature. Biotinylated mouse or human IFN-γ at a concentrabon of 1 μg/ml was captured overnight at 4° C. Plates were washed 5 times with PBS/0.05% Tween-20. Culture supernatant (⅓ diluted) was applied to the wells. Detection was performed using anti-c-myc antibody, followed by anti-mouse-HRP and ABTS/H₂O₂ as substrate. Plates were read at 405 nm after 30 minutes incubation at room temperature.

B1: MP3C7SRA (VHH)
VHH: QVQLQESGGGLVQAGDSLRLSCAASGRSFSSYGMGWFRQAPGKEHEFVAGIWRSGVSLYYADSVKGRFTISRDDAKMTVSLQMNSLKPEDTAVYYCAAEATFPTWNRGRFADYDYSGQGTQVTVSS
B1 registered an IC50 in assay [1] above 200 µg/mL. For the same molecule, the “IC50 (nM), cell-based inhibition assay (FS4 cells treated with IFN-γ pre-incubated with VHH, EMC virus, MTT)” value (shortened to “IC50 (nM), cell-based inhibition assay”) in assay [2] came out at 7500 nM. As to B2, the binding result in assay [3] was “binds”.

B3: MP6 C11 BR (VHH)
VHH: QVQLQESGGGLVQAGGSLRLSCAASGRTFSTYAMGWFRQAPGKEREFVAGITSSGGYTYYADSVKGRFTISRDNAKNTVYLQMNSLKPEDTAVYYCAAGFRVGIALDLKGRYDYWGQGTQVTVSS
notes: Llama VHH selected on mouse IFN-γ
Regarding B3, the binding result in assay [4] is recorded as “binds”.

B4: MP3C1SR (VHH)
VHH: QVQLQDSGGGLVQAGGSLRLSCAAAGISGSVFSRTPMGWYRQAPGKQRELVAGILSSGATVYAESVKGRFTISRDNAKNTVYLQMNSLSPEDTAEYYCNTYPTWVLSWGQGTQVTVSS
Turning to B4, the 50% inhibitory concentration (IC50) in assay [1] was above 200 µg/mL. Also, in assay [2], the “IC50 (nM), cell-based inhibition assay” value stood at 9000 nM.

B5: MP6 D6 BR (VHH)
VHH: QVQLQESGGGLVQAGGSLRLSCAVSGSIFSLLAMGWFRQAPGKERELVASVSTHSNTNYADSVKGRFTISRDNAKNTVYLQMNSLKPEDTAVYYCNAGGRYSARVYWGQGTQVTVSS
notes: as for B3
As to B5, the binding result in assay [4] is “binds”.

B6: MP2F6SR/MP2F6SR (VHH)
chain: QVKLEESGGGLVQAGGSLRLSCAASGRTFNNYNMGWFRQAPGKEREFVAAISWNGGSTYYDDSVKGRFTISRDNANNLVYLQMNSLNFEDTAVYYCACAANPYGIPQYRENRYDFWGQGTQVTVSSEPKTPKPQPAAAQVKLEESGGGLVQAGGSLRLSCAASGRTFNNYNMGWFRQAPGKEREFVAAISWNGGSTYYDDSVKGRFTISRDNANNLVYLQMNSLNFEDTAVYYCACAANPYGIPQYRENRYDFWGQGTQVTVSS
B6 yielded an IC50 (nM), cell-based inhibition assay (FS4 cells treated with IFN-γ pre-incubated with VHH, EMC virus, MTT) in assay [2] of 0.15 nM.

B7: MP3D2BR (VHH)
VHH: QVQLQESGGGLVQPGESLRLSCAASRGIFRFNAGGWYRQAPGKQRELVAFIGVDNTTRYIDSVKGRFTISRDNAKTTVYLQMNSLQPEDTAVYYCNKVPYIDWGQGTQVTVSS
B7: the IC50 in assay [1] stood at 4 µg/mL. The “IC50 (nM), cell-based inhibition assay” value in assay [2] came to 9000 nM.

B8: MP6 B12 BR (VHH)
VHH: QVQLQESGGGLVQAGGSLRLSCAASGFTFDDYDIGWFRQAPGKEREEVSCISNIDGSTYYADSVKGRFTISSDNAKNTAYLQMSSLKPEDTAVYYCAADIYVRCVHGLSPGYWGQGIQVTVSS
notes: as for B3
In the case of B8, the binding result in assay [4] is recorded as “binds”.

B9: MP3B1SRA (VHH)
VHH: QVQLQESGGGLVQPGGSLRLSCAASGFTSSNYAMSWVRQAPGKGLEWVSSINSRTGSITYADSVKGRFTITLDNAKNTLYLQMNSLKPEDTAVYYCASRVDDRVSRGQGTQVTVSS
For B9, the IC50 in assay [1] turned out to be 20 µg/mL. Moreover, the “IC50 (nM), cell-based inhibition assay” value in assay [2] is 9000 nM.

B10: MP4C10SR (VHH)
VHH: QVQLQESGGGLVQPGGSLRLSCAASGFTVSNYAMSWVRQPPGKGIEWVSSINNRNDHITYADSVKGRFTIARDNANNILYLQMNSLKPEDTAVYYCASRVDDRVSRGQGTQVTVSS
In assay [1], B10 gave an IC50 above 200 µg/mL. In addition, the “IC50 (nM), cell-based inhibition assay” value in assay [2] was 200000 nM.

B11: MP3F1SRA (VHH)
VHH: QVQLQESGGGLVQAGGSLTLSCVASGRTISDYAVGWFRQAPGKEREFVASISWGGGFTAFADSMKGRFTISRDNAKNTVYLQTHTLEPDDTSVYYCASSRRYCTGYRCYATASEFDSWGQGTQVTVSS
As to B11, the 50% inhibitory concentration (IC50) in assay [1] came to 8 µg/mL. In addition, in assay [2], the “IC50 (nM), cell-based inhibition assay” value turned out to be 9000 nM.

B12: MP3A7SRA (VHH)
VHH: QVQLQDSGGGLVQAGGSLRLSCAASGRTFSSFRMGWFRRAPGEEREFVAFVRSNGTSTYYADSVEGRFTITRDNAKNTVYLRMDSLKPEDTAVYYCAAATRDYGGSFDYWGQGTQVIVSS
Consider B12, for which, in assay [1], the IC50 is 5 µg/mL. In addition, in assay [2], the “IC50 (nM), cell-based inhibition assay” value is 9000 nM.

B13: MP6 B1 BR (VHH)
VHH: QVQLQESGGGLVQAGGSLRLSCAASGFTSDDYAIGWFRQAPGKEREGVSCISSSDGVTYYADSVKGRFTISSDNAKNTVYLQMNSLKPEDTAVYYCAADSLPLCFSGSYYHPYEYDYLGQGTQVTVSS
notes: as for B3
Consider B13, for which the binding result in assay [4] is “binds”.

B14: MP2F1BR (VHH)
VHH: AVQLVESGGGLVQTGDSLRLSCVASGGTFSRYAMGWFRQAPGKEREFVARIGYSGRSISYATSVEGRFAISRDNAKNTVYLQMNSLKPEDTAVYYCASLVSGTLYQADYWGQGTQVTVSS
Regarding B14, the IC50 in assay [1] was 8 µg/mL. Further, the “IC50 (nM), cell-based inhibition assay” value in assay [2] was determined as 5000 nM.

B15: MP6 A8 BR (VHH)
VHH: QVQLQESGGGLVQAGGSLRLSCAASGFTFDDYAIGWFRQAPGKELEGVSMINSGGGSTYYADSVKGRFTISSDNAKNTVYLQMNSLKPEDTAVYYCAADQNARLFRLWVVTGTGPVDNALDAWGQGTLVTVSS
notes: as for B3
B15: the binding result in assay [4] is given as “binds”.

B16: MP6 B10 BR (VHH)
VHH: QVQLQDSGGGLVQLGGSLRLSCAISGRILGSYAVGWFRQAPGKERQFVAAIGWSYGNTYYADSVKGRFTISRDNAKNTVYLQINSLKPEDTAVYYCAAGDTYLTGRPNEYAYWGQGTQVTVSS
notes: as for B3
As to B16, the binding result in assay [4] is listed as “binds”.

B17: MP2F6SR (VHH)
VHH: QVKLEESGGGLVQAGGSLRLSCAASGRTFNNYNMGWFRQAPGKEREFVAAISWNGGSTYYDDSVKGRFTISRDNANNLVYLQMNSLNFEDTAVYYCACAANPYGIPQYRENRYDFWGQGTQVTVSS
With B17, in assay [1], the IC50 came to 1.75 µg/mL. In addition, in assay [2], the “IC50 (nM), cell-based inhibition assay” value stood at 1500 nM.

A word on the IC50: it is the midpoint of a concentration-inhibition curve.
